Series [1] has as its target Cp(-10)149d (recombinant HBV e-antigen, residues (-10)-149, C48A, C107A, G123A; dimer) (Hepatitis B virus) (UniProt P03147). As to the kind of experiment: AUC.
The series “AUC” concerns the molecule itself. Kind of series: AUC.

For “Cp(-10)149d (recombinant HBV e-antigen, residues (-10)-149, C48A, C107A, G123A; dimer) (from UniProt P03147 1-149) (natural protein)”, the stoichiometry N (usually the number of molecules, sites or subunits per partner or assembly) in series [1] worked out at 2.

B1: Cp149d (HBV capsid protein residues 1-149, C48A, C107A, G123A; dimer) (domain or fragment)
chain: MDIDPYKEFGATVELLSFLPSDFFPSVRDLLDTAAALYRDALESPEHASPHHTALRQAILCWGDLMTLATWVGTNLEDPASRDLVVSYVNTNVGLKFRQLLWFHISALTFGRETVLEYLVSFAVWIRTPPAYRPPNAPILSTLPETTVV
B1: in the series “AUC”, the “stoichiometry N” value turned out to be 2.
